This note sets out measurements from PMC8769072 (2022).

The target of one assay is T1, ITB3763-778 (Homo sapiens (Human), UniProt P05106).
T1 chain: AKWDTANNPLYKEATS
Briefly: FP competition.

The target in the next assay is T2, MAP1A1836-1851 (Homo sapiens (Human), UniProt P78559).
T2 chain: PSWLADIPPWVPKDRP
Briefly: FP competition.

What is called Kd is the equilibrium constant for the complex coming apart.

B1: TLN1 PTB (protein)
chain: GVSFFLVKEKMKGKNKLVPRLLGITKECVMRVDEKTKEVIQEWNLTNIKRWAASPKSFTLDFGDYQDGYYSVQTTEGEQIAQLIAGYIDIILK
In the case of B1, binding in the assay with ITB3763-778 was characterised by a dissociation constant (Kd) of 500 µM.

B2: SFN 14-3-3 (protein)
chain: MERASLIQKAKLAEQAERYEDMAAFMKGAVEKGEELSCEERNLLSVAYKNVVGGQRAAWRVLSSIEQKSNEEGSEEKGPEVREYREKVETELQGVCDTVLGLLDSHLIKEAGDAESRVFYLKMKGDYYRYLAEVATGDDKKRIIDSARSAYQEAMDISKKEMPPTNPIRLGLALNFSVFHYEIANSPEEAISLAKTTFDEAMADLHTLSEDSYKDSTLIMQLLRDNLTLWTADNAGEEGGEAPQEPQS
For the molecule B2, the Kd with MAP1A1836-1851 turned out to be 355 µM.
